Data: patent US20140087995A1 (published 2014)
Numbered stars: 1 amine (or outer) side, 2 acyl side, 3 side chain; on linkers, the order of the positions; unused ones are H or OH. Bridge positions count the residues as written; N and C are the ends. Side chains are listed from the residue outwards. Ends that are not written are not given here. * marks the point of attachment. C20 diacid = O=C(O)CCCCCCCCCCCCCCCCCCC(=O)*; γGlu = O=C(O)[C@H](CCC(=O)[*:2])N[*:1]; AEEA = NCCOCCOCC(=O)O

B1: N^ε1-[2-[2-[2-[[(4S)-4-carboxy-4-(19-carboxynonadecanoylamino)butanoyl]amino]ethoxy]ethoxy]acetyl]-[His14,Arg17,Pro21,Pro27,His34]-h-amylin (peptide)
peptide: K([AEEA-γGlu-C20 diacid])CNTATCATQRLAHFLRHSSPNFGAIPSSTNVGHNTY-NH2
modifications: disulfide 2-7; N-terminus assumed
SMILES: CC[C@H](C)[C@H](NC(=O)[C@H](C)NC(=O)CNC(=O)[C@H](Cc1ccccc1)NC(=O)[C@H](CC(N)=O)NC(=O)[C@@H]1CCCN1C(=O)[C@H](CO)NC(=O)[C@H](CO)NC(=O)[C@H](Cc1c[nH]cn1)NC(=O)[C@H](CCCNC(=N)N)NC(=O)[C@H](CC(C)C)NC(=O)[C@H](Cc1ccccc1)NC(=O)[C@H](Cc1c[nH]cn1)NC(=O)[C@H](C)NC(=O)[C@H](CC(C)C)NC(=O)[C@H](CCCNC(=N)N)NC(=O)[C@H](CCC(N)=O)NC(=O)[C@@H](NC(=O)[C@H](C)NC(=O)[C@@H]1CSSC[C@H](NC(=O)[C@@H](N)CCCCNC(=O)COCCOCCNC(=O)CC[C@H](NC(=O)CCCCCCCCCCCCCCCCCCC(=O)O)C(=O)O)C(=O)N[C@@H](CC(N)=O)C(=O)N[C@@H]([C@@H](C)O)C(=O)N[C@@H](C)C(=O)N[C@@H]([C@@H](C)O)C(=O)N1)[C@@H](C)O)C(=O)N1CCC[C@H]1C(=O)N[C@@H](CO)C(=O)N[C@@H](CO)C(=O)N[C@H](C(=O)N[C@@H](CC(N)=O)C(=O)N[C@H](C(=O)NCC(=O)N[C@@H](Cc1c[nH]cn1)C(=O)N[C@@H](CC(N)=O)C(=O)N[C@H](C(=O)N[C@@H](Cc1ccc(O)cc1)C(N)=O)[C@@H](C)O)C(C)C)[C@@H](C)O
notes: also called compound 80
B2: N^ε1-[2-[2-[2-[[(4S)-4-carboxy-4-(19-carboxynonadecanoylamino)butanoyl]amino]ethoxy]ethoxy]acetyl]-[Thr14,Arg17,Pro21,Pro27,Pro31]-h-amylin (peptide)
peptide: K([AEEA-γGlu-C20 diacid])CNTATCATQRLATFLRHSSPNFGAIPSSTPVGSNTY-NH2
modifications: disulfide 2-7; N-terminus assumed
SMILES: CC[C@H](C)[C@H](NC(=O)[C@H](C)NC(=O)CNC(=O)[C@H](Cc1ccccc1)NC(=O)[C@H](CC(N)=O)NC(=O)[C@@H]1CCCN1C(=O)[C@H](CO)NC(=O)[C@H](CO)NC(=O)[C@H](Cc1c[nH]cn1)NC(=O)[C@H](CCCNC(=N)N)NC(=O)[C@H](CC(C)C)NC(=O)[C@H](Cc1ccccc1)NC(=O)[C@@H](NC(=O)[C@H](C)NC(=O)[C@H](CC(C)C)NC(=O)[C@H](CCCNC(=N)N)NC(=O)[C@H](CCC(N)=O)NC(=O)[C@@H](NC(=O)[C@H](C)NC(=O)[C@@H]1CSSC[C@H](NC(=O)[C@@H](N)CCCCNC(=O)COCCOCCNC(=O)CC[C@H](NC(=O)CCCCCCCCCCCCCCCCCCC(=O)O)C(=O)O)C(=O)N[C@@H](CC(N)=O)C(=O)N[C@@H]([C@@H](C)O)C(=O)N[C@@H](C)C(=O)N[C@@H]([C@@H](C)O)C(=O)N1)[C@@H](C)O)[C@@H](C)O)C(=O)N1CCC[C@H]1C(=O)N[C@@H](CO)C(=O)N[C@@H](CO)C(=O)N[C@H](C(=O)N1CCC[C@H]1C(=O)N[C@H](C(=O)NCC(=O)N[C@@H](CO)C(=O)N[C@@H](CC(N)=O)C(=O)N[C@H](C(=O)N[C@@H](Cc1ccc(O)cc1)C(N)=O)[C@@H](C)O)C(C)C)[C@@H](C)O
notes: also called compound 75

Assays:
[1] = target: T1, human calcitonin receptor (human, UniProt P30988 25-474); assay: ratio IC50 hCTR / IC50 hAmylin-R (reference: human amylin receptor), SPA competition assays
T1 construct: whole, on cells; Assay used cell membranes, not intact cells; also called hCTR; hCT
T1 sequence (looked up): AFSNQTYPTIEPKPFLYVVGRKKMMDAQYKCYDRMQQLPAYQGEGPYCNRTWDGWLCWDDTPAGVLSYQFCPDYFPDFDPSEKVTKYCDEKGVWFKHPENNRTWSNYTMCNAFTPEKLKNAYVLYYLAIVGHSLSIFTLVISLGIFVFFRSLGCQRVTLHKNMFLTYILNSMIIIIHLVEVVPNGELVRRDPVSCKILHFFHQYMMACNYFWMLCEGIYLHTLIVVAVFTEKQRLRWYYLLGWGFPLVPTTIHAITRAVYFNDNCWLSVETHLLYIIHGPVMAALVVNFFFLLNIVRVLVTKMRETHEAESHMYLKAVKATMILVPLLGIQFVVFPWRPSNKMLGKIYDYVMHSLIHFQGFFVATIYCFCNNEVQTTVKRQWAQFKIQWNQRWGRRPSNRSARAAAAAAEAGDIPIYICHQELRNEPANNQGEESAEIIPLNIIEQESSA
How it was run: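 IC₅₀ values were derived by one-site competition analysis of SPA counts. Cell membranes (35 ng/μL) with SPA beads were incubated with test compounds for 120 min at 25° C in Hepes buffer, pH 7.4, containing CaCl2, MgCl₂, OA and Tween20.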

[2] = target: T1, human calcitonin receptor; assay: SPA competition with 125I-calcitonin on membranes of BHK cells with human calcitonin receptor (Assay VII)
How it was run: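 BHK hCTR membranes 35 ng/μL + SPA beads 0.05 mg/well; buffer 50 mM Hepes pH 7.4, 1 mM CaCl2, 5 mM MgCl₂, 0.1% OA, 0.02% Tween20. 120 min, 25° C., shaking. Scintillation count; IC50 by one-site binding competition.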

[3] = target: T2, human amylin receptor (amylin 3(a) receptor: human calcitonin receptor with RAMP-3) (human, UniProt P30988 25-474; O60896 24-148); assay: SPA competition with 125I-rat amylin on membranes of BHK cells with human calcitonin receptor and RAMP-3 (Assay V)
T2 construct: whole, on cells; Assay used cell membranes of the Amylin 3(a)/CRE-luc BHK cells, not intact cells; also called hAmylin-R; hAmylinR
T2 sequence (looked up) 1: T1 sequence (looked up)
T2 sequence (looked up) 2: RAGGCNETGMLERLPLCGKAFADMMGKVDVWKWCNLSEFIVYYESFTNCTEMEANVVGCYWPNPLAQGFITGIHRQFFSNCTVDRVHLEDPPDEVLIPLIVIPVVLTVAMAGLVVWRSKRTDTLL
How it was run: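 Cell membranes were prepared by homogenisation in Na-HEPES/EDTA buffer, pH 7.4, and stored at −80° C. They were then coupled to SPA beads at 35 ng/μL final and exposed to compounds in assay buffer containing CaCl2, MgCl₂, OA and Tween20. After 120 min at 25° C, plates were counted and IC₅₀ derived.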

Binder | Ratio hCT/hAmylin binding [1] | IC50 [2] [nM] | IC50 [3] [nM]
B1 | 68.1 | 19.8 | 0.29
B2 | 91.4 | 60.9 | 0.666
